Assay: yeast display, Sf9 membrane polyspecificity reagent, FACS + sequencing; frameworks hold sequencing errors
Outline: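 Galactose induction of a Saccharomyces cerevisiae BJ5465 synthetic nanobody display library ran 36–48 hours. The cells were then stained for 1 hour at 4 °C with 10% biotinylated, detergent-solubilized Sf9 membrane reagent, pulled down on streptavidin microbeads and FACS-sorted into low and high (top ~1%) gates on expression and reagent-binding fluorescence. Labels for polyreactivity follow the gate of origin.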

Row | Sequence | polyreactivity (PSR sort gate)
1 | QVHLVESGGGLVQAGGSLRLSCAASGRGYYALGWYRQAPGKERELVAAISRGGNTKYADSVKGRFTISRDNAKNSVYLQMNSLKPEDTAVYYCAAYAYSYELYYWGQGTQVTVSS | high polyreactivity
2 | QVHLVESGGGLVQAGGSLRLSCAASGRIFARNAKGWYRQAPGKERELVATIRVGGGSTYYADSVKGRYTISRDNAKNTVYLQMNSLKPEDTAVYYCAVRQLYSYPGDRRGYYWGQGTQVTVSS | low polyreactivity
3 | QVHLVESGGGLVQAGGSLRLSCAASGRIFDYYTMGWYRQAPGKERELVAAITWIGGSTYYEDSVKGRFTISRDNAKNTVYLQMNSLKPEDTAVYYCYAEGTALPYRADTVGGYYYWGQGTQVTVSS | low polyreactivity
4 | QVHLVESGGGLVQAGGSLRLSCAASGRIFKKYAMGWYRQAPGKESELVATISSGGSTYYADSVKGRFTISRDNAKNTVYLQMNSLNPEDTAVYYCARREYVRRDYFVTTYDYWGQGTQVTVSS | low polyreactivity
5 | QVHLVESGGGLVQAGGSLRLSCAASGRIFRQYAMGWYRQAPGKERELVAAISYSGGSTYYADSVKGRFTISRDYAKNTVYFQMNSLKPEDTAVYYCAATRWVPATGKFGYWGQGTQVTVSS | high polyreactivity
6 | QVHLVESGGGLVQAGGSLRLSCAASGRIFTYYAMAWYRQAPGKEREMVAGITGSGASTYYADSVKGRFTISRDNAKNTVYLQMNSLKPEDTAVYYCNAPYVIRPFRGRYDYWGQGTQVTVSS | high polyreactivity
7 | QVHLVESGGGLVQAGGSLRLSCAASGRIFYGYVMGWYRQAPGTEREFVAAITWSAGSTYYADSVKGRFTISRDNAKNTVYLQMNSLKPEDTALYYCADGGGHYQEYLMEDYWGQGTQVTVSS | high polyreactivity
8 | QVHLVESGGGLVQAGGSLRLSCAASGRIMVHNAMGWYRQAPGKERELVAVITARGASTYYADSVKGRFTISRDNAKNTVYLQMNSLKPEDTAVYYCATDKRPKYYNQYDYWGQGTQVTVSS | low polyreactivity
9 | QVHLVESGGGLVQAGGSLRLSCAASGRIRFNAMGWYRQAPGKERELVAAITSDGGRTYYADSVKGRFTISRDNAKNTVYLQMNSLKPEDTAVYYCNTDYILWGDYDYWGQGTQVTVSS | low polyreactivity
10 | QVHLVESGGGLVQAGGSLRLSCAASGRLLVLNDMGWYRPEPGKVMELVADITSGGSTYYADSVKGRFTISRDNAKKTDYLQMNSLKPEDPAVYYCAADWNTYPDYQQSYFVSYEYNYWGQGTQVTVSS | low polyreactivity
11 | QVHLVESGGGLVQAGGSLRLSCAASGRTFDDYAMGWYRQAPGKERELVAAISSSGGSTYYADSVKGRFTISRDNAKNTVYLQMNSLKPEDTAVYYCAADYDWGYWYDYWGQGTQVTVSS | low polyreactivity
12 | QVHLVESGGGLVQAGGSLRLSCAASGRTFDRNAMGWYIQAPGKERELVAAISRNGGSTYYADSVKGRFTISRDNAKNTVYLQMNSLKPEDTAVYYCAAPRSVYDVARGDYWGQGTQVTVSS | high polyreactivity
13 | QVHLVESGGGLVQAGGSLRLSCAASGRTFETYAMGWYRQSPGKERELVAAITTSGGTTYYADSVKGRFTISRDNAKNTVYLQMKSLKPEDTAVYYCAADPWIEDTYGSKAYYYWGQGTQVTVSS | low polyreactivity
14 | QVHLVESGGGLVQAGGSLRLSCAASGRTFGRKAMGWYRQAPGKERELVASITKRGGSTYYADSVKGRFTISRDNAKNTVYLQMNSLKPVDTAVYYCAVEAYDYWGQGTQVTVSS | high polyreactivity
15 | QVHLVESGGGLVQAGGSLRLSCAASGRTFGTYAMGWYRQAPGKERELVAAISSGGSTNYADSVKGRFTISRGNAKNTVYLQMNSLKPEDTAVYYCAAQGYWTYWPYLLRLYDYWGQGTQVTVSS | low polyreactivity
16 | QVHLVESGGGLVQAGGSLRLSCAASGRTFGWNVMGWYRQAPGKERELVAAISGSGGSTYYADSVKGRFTISRDNAKNTVYLQMMSLKPEDTAVYYCAKEYPWMPRSYEYWGQGTQVTVSS | low polyreactivity
17 | QVHLVESGGGLVQAGGSLRLSCAASGRTFGWNVMGWYRQAPGKERELVAAISGSGGSTYYADSVKGRFTISRDNAKNTVYLQMNSLKPEVTAVYYCAALYGPGREYDYWGQGTQVTVSS | low polyreactivity
18 | QVHLVESGGGLVQAGGSLRLSCAASGRTFHYYAMGWYRQAPGKERELVAAISVSGGSTYYADSVKGRFTISRDNAKNTVYLQMNSLKPEDNAVYYCAADDYLVEHDYWGQGTQVTVSS | low polyreactivity
19 | QVHLVESGGGLVQAGGSLRLSCAASGRTFPSYAMGWYRQAPGKERELVAAITRGGSTYYADSVKGRFTISRDNAKNTVYLQMNSLKPEDTAVYYCATRYGRARAYYYWGQGTQVTVSS | high polyreactivity
20 | QVHLVESGGGLVQAGGSLRLSCAASGRTFRIYAMGWYRPAPGKERELVAAISRSSTSTYYADSVKGRFTISRDNAKNTVYLQMNSLKPEDTAVYYCAAVVTVQYSQPYDHWGQGTQVTVSS | high polyreactivity
21 | QVHLVESGGGLVQAGGSLRLSCAASGRTFTRYTMGCYRQAPGKESELVAAISRRGGSTYYADSVKGRFTISRHNAKNTVYLQMNSLKPEDTAFYYCNADYVPGRPSFIYDYWGQGTQVTVSS | high polyreactivity

Row | Sequence | polyreactivity (PSR sort gate)
22 | QVHLVESGGGLVQAGGSLRLSCAASGRTFYPFGMGWYRQATGKERELVATITYSGARTYYADTVKGRFTISRDNAKNTVYLQMNILKPEDTAVYYCAAGYYWGIGTGFDYWGQGTQVTVSS | high polyreactivity
23 | QVHLVESGGGLVQAGGSLRLSCAASGRTFYTYAMGWYRQATGKERELVAVIRRDGSTSYADSVKGRFTISRDNAKNTVFLQKNSLKPEDTAVYYCAVTRRGEYYWGQGTQVTVSS | high polyreactivity
24 | QVHLVESGGGLVQAGGSLRLSCAASGRTLYDYAMEWYRQAPAKERELVAGITSGDSTYYADSVKGRFTISRDNAKNTVYLQMNSLKPEDTAVYYCAADSDTFYYTGYDYDYWGQGTQVTVSS | low polyreactivity
25 | QVHLVESGGGLVQAGGSLRLSCAASGRTYARYTMAWYRQAPGKEREMVASITRGGSTYFADSVKGRFTISRDNAKNTVYLQMNSLKPGDTAVYYCAARFPQHNYWAMDYWGLGTQVTVSS | high polyreactivity
26 | QVHLVESGGGLVQAGGSLRLSCAASGSIFEENAMGWYRQAPGKERELVAVISTRDGRTYYADSVKGRFTISRDNAKNTVYLQMNSLKPEDTAVYYCAASPDPYWRRMDYWGQGTQVTVSS | high polyreactivity
27 | QVHLVESGGGLVQAGGSLRLSCAASGSIFFNNAMGWYRQPPGKERELVAAINYGNGSTYYADSVKGRFTISRDNAKNTVYLQMNSLKPEDTAVYYCNADYTGTRSDSVTPEYEYWGQGTQVTVSS | low polyreactivity
28 | QVHLVESGGGLVQAGGSLRLSCAASGSIFRGYAMGWYRQAPGRERELVAAISRSGGSTYYADSVKGRFTISRDNAKNTVYLQRNSLKPEDTAGYYCAALLRGRYRMYYWGQGTQVTVSS | high polyreactivity
29 | QVHLVESGGGLVQAGGSLRLSCAASGSIFSGNAMGWYRQAPGKERELVAAITSSGGNTYYADSVKGRFTISRDNAKNTVYLQMNSLKPADTAVYYCAADGVYWRWYLYTFWMDYWGQGTQVTVSS | low polyreactivity
30 | QVHLVESGGGLVQAGGSLRLSCAASGSIFTGYAMGWYRQAPGKERELVAGISWGGTSTYYADSVKGRFTISRDNAKNTVYLQMNSLKPEDTAVYYCAAKPYYFYGMDYWGQGTQVTVSS | high polyreactivity
31 | QVHLVESGGGLVQAGGSLRLSCAASGSIFTPYAMGWYRQAPGKERELVATISWSGGRTYYADSVKGRFTISRDNAKNTVYLQMNSLKPEDTAVYYCAARGYSSEYDYWGQGTQVTVSS | high polyreactivity
32 | QVHLVESGGGLVQAGGSLRLSCAASGSIFTVYTMGWYRQAHGKERELVAAINSRGGTTYYADSVKGRFTISRDYAKNTVYLQMNSLKPEDTAVYYCAAKQRPKSYGPVHYYWGQGTQVTVSS | high polyreactivity
33 | QVHLVESGGGLVQAGGSLRLSCAASGSIFVHYAMGWYRQAPGKERELVATISSSGGSTYYADSVKGRFTISRDNAKNTVYLQMKSLKPEDTAVYYCAADWTLDPSYGYYADDYWGQGTQVTVSS | low polyreactivity
34 | QVHLVESGGGLVQAGGSLRLSCAASGSIFWANAMGWYSQAPGKERELVAAINFRATITYYADSVKGRFTISRDIAKNTFYLQMISLKPEDTAVYYCAGDSYECWYDYWGQGTEVTVSS | high polyreactivity
35 | QVHLVESGGGLVQAGGSLRLSCAASGSIFYGNAMGWDRQATGKERELVAGISWYGGSTYYADSVKGRFTISRDNAKNTVYLQMNSLKPEDTAVYYCATVADEPRSYSGYEEYDYWGQGTQVTVSS | low polyreactivity
36 | QVHLVESGGGLVQAGGSLRLSCAASGSIFYRNAMGWYRPAPGKERELVAAISSDGSTNYADSVKGRFTISRDNEKNTVYLQMNSLKPEDTAVYYCAAPWTQILDYWGQGNQVTVSS | low polyreactivity
37 | QVHLVESGGGLVQAGGSLRLSCAASGSIFYSNAMGWYRQAPGKERELVAAITRGGSTHYADSVKGRFTISRDNAKNTVYLQMNSLKPEDTAVYYCNKDLNFAKYISSILYDYWGQGTQVSVSS | low polyreactivity
38 | QVHLVESGGGLVQAGGSLRLSCAASGSIFYYNTMGWYRQAPGKERELVAGISWGGGRTYYADSVKGRFTISRDNAKNTVYLQMNSLKPEDTAVYYCNARHRRLPSNGGYDYWGKGTQVTVSS | high polyreactivity
39 | QVHLVESGGGLVQAGGSLRLSCAASGSIIKYYAIGWYRQAPGKERELVAAISWRGGRTYADSVKGRFTISRDNAKNTVYIQMNSLKPEDTAVYYCATSSRYRYWHRYDYWGQGTQVTVSS | high polyreactivity
40 | QVHLVESGGGLVQAGGSLRLSCAASGSILLINAMGWYRQAPGKERELVAAIRTGGSTYYADSVKGRFTISRDNAKNTVSLQMNSLKPEDTAVYYCAVRTGRRWWKFDYWGQGTQVTVSS | low polyreactivity
41 | QVHLVESGGGLVQAGGSLRLSCAASGSILPFNAMGWYRQAPGKDRELVAAIDGSGGDTYYADSVKGRFTISRDNAKNTVYLHMNSLKPEDTAVYYCAAEYYYTSQLAKYHYGYEYWGQGTQVTVSS | high polyreactivity

Reference: the nanobody polyreactivity screen of Harvey et al. (2022)
